Assay results taken from patent publication US20250218531A1 (ABSCI, published 2025).
Substitutions are numbered along the chain they refer to.

B1: De novo trastuzumab HCDR3 variant ARDYDFGLSVGAV (SEQ ID NO: 486) (Fab, V domains shown)
VH: EVQLVESGGGLVQPGGSLRLSCAASGFNIKDTYIHWVRQAPGKGLEWVARIYPTNGYTRYADSVKGRFTISADTSKNTAYLQMNSLRAEDTAVYYCARDYDFGLSVGAVWGQGTLVTVSS
VL: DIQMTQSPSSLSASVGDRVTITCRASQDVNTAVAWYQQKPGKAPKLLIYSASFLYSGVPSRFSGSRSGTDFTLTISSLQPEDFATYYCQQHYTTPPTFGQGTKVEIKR
B2: De novo trastuzumab HCDR2|3 variant IYPANGYT / ASSGGSSSYYYNY (Fab, V domains shown)
VH: EVQLVESGGGLVQPGGSLRLSCAASGFNIKDTYIHWVRQAPGKGLEWVARIYPANGYTRYADSVKGRFTISADTSKNTAYLQMNSLRAEDTAVYYCASSGGSSSYYYNYWGQGTLVTVSS
VL: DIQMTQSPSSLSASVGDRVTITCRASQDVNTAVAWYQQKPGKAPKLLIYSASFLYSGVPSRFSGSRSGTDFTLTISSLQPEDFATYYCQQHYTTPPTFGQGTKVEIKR
B3: Multi-step trastuzumab HCDR3 variant ARSGGSSFYGMDY (SEQ ID NO: 519) (Fab, V domains shown)
VH: B2 VH with A54T, S98R, S104F, Y106G, Y107M, N108D
VL: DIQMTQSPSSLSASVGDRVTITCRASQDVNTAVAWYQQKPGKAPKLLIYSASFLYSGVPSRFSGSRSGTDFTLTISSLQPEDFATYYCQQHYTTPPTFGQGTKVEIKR
B4: De novo trastuzumab HCDR2|3 variant IYSSDGYT / ARSGGSSYYYYDY (Fab, V domains shown)
VH: B2 VH with P53S, A54S, N55D, S98R, S104Y, N108D
VL: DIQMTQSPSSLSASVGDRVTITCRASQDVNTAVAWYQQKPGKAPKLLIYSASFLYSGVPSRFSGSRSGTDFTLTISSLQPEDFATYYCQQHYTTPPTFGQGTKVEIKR
B5: Multi-step trastuzumab HCDR3 variant ARSRGSSSYMMDY (SEQ ID NO: 512) (Fab, V domains shown)
VH: B2 VH with A54T, S98R, G100R, Y106M, Y107M, N108D
VL: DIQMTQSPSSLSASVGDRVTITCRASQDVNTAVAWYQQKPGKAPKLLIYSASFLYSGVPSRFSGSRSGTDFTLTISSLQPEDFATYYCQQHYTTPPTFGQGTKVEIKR
B6: Multi-step trastuzumab HCDR3 variant ARYSGDSYYYYDY (SEQ ID NO: 550) (Fab, V domains shown)
VH: B2 VH with A54T, S98R, S99Y, G100S, S102D, S104Y, N108D
VL: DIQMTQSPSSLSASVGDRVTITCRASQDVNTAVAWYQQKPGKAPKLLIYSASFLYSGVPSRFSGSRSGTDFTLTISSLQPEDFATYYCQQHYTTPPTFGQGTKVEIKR
B7: Multi-step trastuzumab HCDR3 variant ARSGGSGYYSYNY (SEQ ID NO: 523) (Fab, V domains shown)
VH: B2 VH with A54T, S98R, S103G, S104Y, Y106S
VL: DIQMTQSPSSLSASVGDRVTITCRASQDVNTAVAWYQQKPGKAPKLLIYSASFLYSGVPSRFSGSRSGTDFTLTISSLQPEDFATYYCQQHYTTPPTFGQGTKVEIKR
B8: Multi-step trastuzumab HCDR3 variant ARSTGSGFYSYDY (SEQ ID NO: 547) (Fab, V domains shown)
VH: B2 VH with A54T, S98R, G100T, S103G, S104F, Y106S, N108D
VL: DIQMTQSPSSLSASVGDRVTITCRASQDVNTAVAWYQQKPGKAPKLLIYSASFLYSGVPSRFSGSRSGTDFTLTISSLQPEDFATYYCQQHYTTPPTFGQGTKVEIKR
B9: Multi-step trastuzumab HCDR3 variant ARYGGRGYYSFDY (SEQ ID NO: 533) (Fab, V domains shown)
VH: B2 VH with A54T, S98R, S99Y, S102R, S103G, S104Y, Y106S, Y107F, N108D
VL: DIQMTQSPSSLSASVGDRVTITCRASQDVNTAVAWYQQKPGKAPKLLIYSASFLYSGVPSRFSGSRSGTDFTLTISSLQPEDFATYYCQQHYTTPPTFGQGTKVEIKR
B10: Multi-step trastuzumab HCDR3 variant ARDGGRSYYSFYY (SEQ ID NO: 538) (Fab, V domains shown)
VH: B2 VH with A54T, S98R, S99D, S102R, S104Y, Y106S, Y107F, N108Y
VL: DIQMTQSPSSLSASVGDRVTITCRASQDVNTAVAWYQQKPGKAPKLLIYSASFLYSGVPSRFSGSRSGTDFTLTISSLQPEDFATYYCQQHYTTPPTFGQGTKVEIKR
B11: Multi-step trastuzumab HCDR3 variant ARYSYYGGGAFDY (SEQ ID NO: 543) (Fab, V domains shown)
VH: B1 VH with D99Y, Y100S, D101Y, F102Y, L104G, S105G, V106A, G107F, A108D, V109Y
VL: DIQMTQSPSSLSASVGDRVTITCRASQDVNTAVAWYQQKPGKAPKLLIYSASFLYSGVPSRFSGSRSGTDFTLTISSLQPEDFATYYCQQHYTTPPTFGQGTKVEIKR
B12: Multi-step trastuzumab HCDR3 variant ARDGGGGFYAYDY (SEQ ID NO: 534) (Fab, V domains shown)
VH: B2 VH with A54T, S98R, S99D, S102G, S103G, S104F, Y106A, N108D
VL: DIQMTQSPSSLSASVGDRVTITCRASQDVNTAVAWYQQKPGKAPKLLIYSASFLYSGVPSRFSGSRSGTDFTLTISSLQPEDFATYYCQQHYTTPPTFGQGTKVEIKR
B13: Multi-step trastuzumab HCDR3 variant ARSGGSYSYSFDV (SEQ ID NO: 522) (Fab, V domains shown)
VH: B2 VH with A54T, S98R, S103Y, Y106S, Y107F, N108D, Y109V
VL: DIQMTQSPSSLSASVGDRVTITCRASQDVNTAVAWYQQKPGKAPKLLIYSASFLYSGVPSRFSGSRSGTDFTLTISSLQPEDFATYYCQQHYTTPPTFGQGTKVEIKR
B14: De novo trastuzumab HCDR2|3 variant IYPSNGYT / ARYYGGSMYYYGY (Fab, V domains shown)
VH: B2 VH with A54S, S98R, S99Y, G100Y, S102G, S104M, N108G
VL: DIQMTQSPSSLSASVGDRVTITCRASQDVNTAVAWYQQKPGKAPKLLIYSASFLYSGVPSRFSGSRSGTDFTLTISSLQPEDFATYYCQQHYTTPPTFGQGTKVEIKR
B15: Multi-step trastuzumab HCDR3 variant ARSGGRYTYGFDY (SEQ ID NO: 551) (Fab, V domains shown)
VH: B2 VH with A54T, S98R, S102R, S103Y, S104T, Y106G, Y107F, N108D
VL: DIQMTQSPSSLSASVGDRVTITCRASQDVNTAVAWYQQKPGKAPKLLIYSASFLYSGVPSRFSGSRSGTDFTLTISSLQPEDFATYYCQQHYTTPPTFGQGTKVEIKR
B16: Multi-step trastuzumab HCDR3 variant ARYGGSSYYYYDY (SEQ ID NO: 529) (Fab, V domains shown)
VH: B2 VH with A54T, S98R, S99Y, S104Y, N108D
VL: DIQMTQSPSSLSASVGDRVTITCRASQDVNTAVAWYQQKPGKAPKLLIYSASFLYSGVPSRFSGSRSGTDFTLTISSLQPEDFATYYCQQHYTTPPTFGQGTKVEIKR
B17: Multi-step trastuzumab HCDR3 variant ARSSGYYYYGFVY (SEQ ID NO: 540) (Fab, V domains shown)
VH: B2 VH with A54T, S98R, G100S, S102Y, S103Y, S104Y, Y106G, Y107F, N108V
VL: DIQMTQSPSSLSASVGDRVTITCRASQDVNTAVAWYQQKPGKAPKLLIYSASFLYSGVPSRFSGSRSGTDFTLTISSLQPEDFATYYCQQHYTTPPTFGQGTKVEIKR
B18: Multi-step trastuzumab HCDR3 variant ARYGGRSSYYFDY (SEQ ID NO: 545) (Fab, V domains shown)
VH: B2 VH with A54T, S98R, S99Y, S102R, Y107F, N108D
VL: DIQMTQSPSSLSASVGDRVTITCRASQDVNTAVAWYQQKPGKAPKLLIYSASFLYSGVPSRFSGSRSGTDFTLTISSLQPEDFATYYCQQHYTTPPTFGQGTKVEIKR
B19: Multi-step trastuzumab HCDR3 variant ARTGGSSYYAYDY (SEQ ID NO: 520) (Fab, V domains shown)
VH: B2 VH with A54T, S98R, S99T, S104Y, Y106A, N108D
VL: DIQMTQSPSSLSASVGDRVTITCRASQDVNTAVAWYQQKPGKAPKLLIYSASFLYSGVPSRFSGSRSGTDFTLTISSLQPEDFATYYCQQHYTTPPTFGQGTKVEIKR
B20: Multi-step trastuzumab HCDR3 variant ARSYGSGSYSFDY (SEQ ID NO: 514) (Fab, V domains shown)
VH: B2 VH with A54T, S98R, G100Y, S103G, Y106S, Y107F, N108D
VL: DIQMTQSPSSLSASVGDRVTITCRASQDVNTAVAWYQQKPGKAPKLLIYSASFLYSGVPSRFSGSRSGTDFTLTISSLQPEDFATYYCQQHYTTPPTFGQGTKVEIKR
B21: Multi-step trastuzumab HCDR3 variant TRYGSFGYYALDS (SEQ ID NO: 530) (Fab, V domains shown)
VH: B1 VH with A97T, D99Y, Y100G, D101S, L104Y, S105Y, V106A, G107L, A108D, V109S
VL: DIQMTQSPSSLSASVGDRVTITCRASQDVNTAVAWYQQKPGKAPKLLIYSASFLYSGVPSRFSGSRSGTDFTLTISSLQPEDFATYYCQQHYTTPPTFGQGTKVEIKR
B22: Multi-step trastuzumab HCDR3 variant ARSGGGSYYYYDY (SEQ ID NO: 546) (Fab, V domains shown)
VH: B2 VH with A54T, S98R, S102G, S104Y, N108D
VL: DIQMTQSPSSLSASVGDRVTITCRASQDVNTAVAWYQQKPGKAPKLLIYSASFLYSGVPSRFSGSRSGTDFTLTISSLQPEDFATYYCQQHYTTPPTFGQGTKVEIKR
B23: Multi-step trastuzumab HCDR3 variant TRYSYYGYHAMDY (SEQ ID NO: 549) (Fab, V domains shown)
VH: EVQLVESGGGLVQPGGSLRLSCAASGFNIKDTYIHWVRQAPGKGLEWVARIYPTNGYTRYADSVKGRFTISADTSKNTAYLQMNSLRAEDTAVYYCTRYSYYGYHAMDYWGQGTLVTVSS
VL: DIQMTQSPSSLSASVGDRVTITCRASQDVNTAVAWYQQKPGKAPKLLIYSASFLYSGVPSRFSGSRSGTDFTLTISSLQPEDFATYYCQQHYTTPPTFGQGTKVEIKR
B24: Multi-step trastuzumab HCDR3 variant ARDRGVSGYYLYY (SEQ ID NO: 516) (Fab, V domains shown)
VH: B2 VH with A54T, S98R, S99D, G100R, S102V, S104G, Y107L, N108Y
VL: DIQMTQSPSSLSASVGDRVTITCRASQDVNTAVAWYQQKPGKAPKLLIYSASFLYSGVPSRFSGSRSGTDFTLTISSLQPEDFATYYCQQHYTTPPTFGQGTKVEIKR
B25: Multi-step trastuzumab HCDR3 variant ARYSYYGGGYFDY (SEQ ID NO: 515) (Fab, V domains shown)
VH: B23 VH with T97A, Y104G, H105G, A106Y, M107F
VL: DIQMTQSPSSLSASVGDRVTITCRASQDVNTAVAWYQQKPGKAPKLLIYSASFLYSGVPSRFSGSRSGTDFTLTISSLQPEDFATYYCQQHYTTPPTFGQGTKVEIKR
B26: De novo trastuzumab HCDR2|3 variant IYPEDGST / ARSGGSSTYAYDY (Fab, V domains shown)
VH: B2 VH with A54E, N55D, Y57S, S98R, S104T, Y106A, N108D
VL: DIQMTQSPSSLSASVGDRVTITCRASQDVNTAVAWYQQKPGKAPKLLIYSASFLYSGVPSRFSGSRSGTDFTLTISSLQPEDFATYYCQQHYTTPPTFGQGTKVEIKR

What follows are binders tested against T1, human epidermal growth factor receptor 2 (HER2) extracellular domain (human, UniProt P04626 23-629) (assay: SPR, Fab format).
B1 was tested, and the Kd was 358 nM and the “log(KD (M))” value was -6.45 log M.

Biological target: T1, human epidermal growth factor receptor …
Experiment: SPR, Fab format
Remark: another data set of the same source
With B2 the Kd was 554 nM and the “log(KD (M))” value was -6.26 log M.
With B3 the Kd was 680 nM and the “log(KD (M))” value was -6.17 log M.
With B4 the Kd was 810 nM and the “log(KD (M))” value was -6.09 log M.
B5 was tested, and the Kd was 566 nM and the “log(KD (M))” value was -6.25 log M.
In the case of B6, the Kd is reported as 366 nM and the “log(KD (M))” value is reported as -6.44 log M.
For B7, the Kd was 603 nM and the “log(KD (M))” value was -6.22 log M.
With B8 the Kd was 330 nM and the “log(KD (M))” value was -6.48 log M.
B9 was tested, and the Kd was 26.2 nM and the “log(KD (M))” value was -7.58 log M.
For B10, the Kd was 104 nM and the “log(KD (M))” value was -6.98 log M.
For B11, the Kd was 191 nM and the “log(KD (M))” value was -6.72 log M.
For B12, the Kd was 124 nM and the “log(KD (M))” value was -6.91 log M.
For B13, the Kd was 1070 nM and the “log(KD (M))” value was -5.97 log M.
In the case of B14, the Kd is reported as 109 nM and the “log(KD (M))” value is reported as -6.96 log M.
B15 was tested, and the Kd was 1410 nM and the “log(KD (M))” value was -5.85 log M.
In the case of B16, the Kd is reported as 72.3 nM and the “log(KD (M))” value is reported as -7.14 log M.
In the case of B17, the Kd is reported as 157 nM and the “log(KD (M))” value is reported as -6.8 log M.
In the case of B18, the Kd is reported as 257 nM and the “log(KD (M))” value is reported as -6.59 log M.
In the case of B19, the Kd is reported as 901 nM and the “log(KD (M))” value is reported as -6.05 log M.
With B20 the Kd was 495 nM and the “log(KD (M))” value was -6.31 log M.
With B21 the Kd was 57.6 nM and the “log(KD (M))” value was -7.24 log M.
For B22, the Kd was 308 nM and the “log(KD (M))” value was -6.51 log M.
For B23, the Kd was 354 nM and the “log(KD (M))” value was -6.45 log M.
With B24 the Kd was 567 nM and the “log(KD (M))” value was -6.25 log M.
B25 was tested, and the Kd was 478 nM and the “log(KD (M))” value was -6.32 log M.
In the case of B26, the Kd is reported as 669 nM and the “log(KD (M))” value is reported as -6.17 log M.
